Our source for the Kd values is PMC3763809.

In the experiment the target is nucleosome containing the H3(1-132)-QFI chimera (Drosophila | budding yeast), P02299. Kind of experiment: ITC. A general note: In ITC the heat of successive injections is recorded.

B1: budding yeast CENP-C motif (domain or fragment)
chain: GLRKSTRVKVAPLQYWRNEKIVY
modifications: not checked
What is called Kd is the concentration at which binding is half-saturated. B1 registered a Kd of 300 nM.
